Laboratory results from article PMC10858482.
One block for each substance: values may come before it.

How the values were obtained:
[1] = biological target: MP-3fc (miniACE2-(GGGGS)3-coiled-coil, trivalent); test: SEC
[2] = biological target: MP-3ff (miniACE2-(GGGGS)3-foldon, trivalent) (bacteriophage T4); test: SEC
[3] = biological target: MP-3rc (miniACE2-(EAAAK)3-coiled-coil, trivalent); test: SEC
[4] = biological target: MP-3rf (miniACE2-(EAAAK)3-foldon, trivalent) (bacteriophage T4); test: SEC
[5] = biological target: MP-5fc (miniACE2-(GGGGS)5-coiled-coil, trivalent); test: SEC
[6] = biological target: MP-5ff (miniACE2-(GGGGS)5-foldon, trivalent) (bacteriophage T4); test: SEC
[7] = biological target: RBD of the S protein of SARS-CoV-2 (Wuhan-Hu-1) (SARS-CoV-2 (Wuhan-Hu-1)) (UniProt P0DTC2); test: BLI; Octet RED96e; RBD (Wuhan-Hu-1) immobilised on HIS1K biosensors; analyte 50-3.125 nM miniACE2 or 100-3.125 nM MP-5ff in 1x PBS, 0.02% Tween-20, 0.1% BSA; association 1 min, dissociation 3 min; 1:1 binding model
[8] = biological target: MP-5rc (miniACE2-(EAAAK)5-coiled-coil, trivalent); test: SEC
[9] = biological target: MP-5rf (miniACE2-(EAAAK)5-foldon, trivalent) (bacteriophage T4); test: SEC

Substance: MP-3ff (miniACE2-(GGGGS)3-foldon, trivalent) (designed binder)
stoichiometry N [2]: 3

Substance: MP-3rc (miniACE2-(EAAAK)3-coiled-coil, trivalent) (designed binder)
stoichiometry N [3]: 3

Substance: MP-3rf (miniACE2-(EAAAK)3-foldon, trivalent) (designed binder)
stoichiometry N [4]: 3

Substance: MP-5fc (miniACE2-(GGGGS)5-coiled-coil, trivalent) (designed binder)
stoichiometry N [5]: 3

Substance: MP-5rc (miniACE2-(EAAAK)5-coiled-coil, trivalent) (designed binder)
stoichiometry N [8]: 3

Substance: miniACE2 (microprotein LCB3) (designed binder)
Kd [7]: 1.03 nM | koff [7]: 0.000986 s⁻¹

The remaining lines, values ahead:

stoichiometry N [1]: 3
Substance: MP-3fc (miniACE2-(GGGGS)3-coiled-coil, trivalent) (designed binder)

stoichiometry N [6]: 3 | Kd [7]: < 0.001 nM | koff [7]: < 1e-07 s⁻¹
Substance: MP-5ff (miniACE2-(GGGGS)5-foldon, trivalent) (designed binder)

stoichiometry N [9]: 3
Substance: MP-5rf (miniACE2-(EAAAK)5-foldon, trivalent) (designed binder)
